Assay results: article PMC3377666

Assays:
[1] = target: recombinant human Pol δ core+p12 trimer (p125/p50/p12) (human) (UniProt P28340)
[2] = target: recombinant human Pol δ holoenzyme (heterotetramer p125/p50/p68/p12) (human) (UniProt P28340)
[3] = target: recombinant human Pol δ core dimer (p125/p50) (human) (UniProt P28340)
[4] = target: recombinant human Pol δ core+p68 trimer (p125/p50/p68) (human) (UniProt P28340)
Chain of recombinant human Pol δ core+p68 trimer (p125/p50/p68) (human) (P28340 whole entry, stated change not applied, chain 1 of 3): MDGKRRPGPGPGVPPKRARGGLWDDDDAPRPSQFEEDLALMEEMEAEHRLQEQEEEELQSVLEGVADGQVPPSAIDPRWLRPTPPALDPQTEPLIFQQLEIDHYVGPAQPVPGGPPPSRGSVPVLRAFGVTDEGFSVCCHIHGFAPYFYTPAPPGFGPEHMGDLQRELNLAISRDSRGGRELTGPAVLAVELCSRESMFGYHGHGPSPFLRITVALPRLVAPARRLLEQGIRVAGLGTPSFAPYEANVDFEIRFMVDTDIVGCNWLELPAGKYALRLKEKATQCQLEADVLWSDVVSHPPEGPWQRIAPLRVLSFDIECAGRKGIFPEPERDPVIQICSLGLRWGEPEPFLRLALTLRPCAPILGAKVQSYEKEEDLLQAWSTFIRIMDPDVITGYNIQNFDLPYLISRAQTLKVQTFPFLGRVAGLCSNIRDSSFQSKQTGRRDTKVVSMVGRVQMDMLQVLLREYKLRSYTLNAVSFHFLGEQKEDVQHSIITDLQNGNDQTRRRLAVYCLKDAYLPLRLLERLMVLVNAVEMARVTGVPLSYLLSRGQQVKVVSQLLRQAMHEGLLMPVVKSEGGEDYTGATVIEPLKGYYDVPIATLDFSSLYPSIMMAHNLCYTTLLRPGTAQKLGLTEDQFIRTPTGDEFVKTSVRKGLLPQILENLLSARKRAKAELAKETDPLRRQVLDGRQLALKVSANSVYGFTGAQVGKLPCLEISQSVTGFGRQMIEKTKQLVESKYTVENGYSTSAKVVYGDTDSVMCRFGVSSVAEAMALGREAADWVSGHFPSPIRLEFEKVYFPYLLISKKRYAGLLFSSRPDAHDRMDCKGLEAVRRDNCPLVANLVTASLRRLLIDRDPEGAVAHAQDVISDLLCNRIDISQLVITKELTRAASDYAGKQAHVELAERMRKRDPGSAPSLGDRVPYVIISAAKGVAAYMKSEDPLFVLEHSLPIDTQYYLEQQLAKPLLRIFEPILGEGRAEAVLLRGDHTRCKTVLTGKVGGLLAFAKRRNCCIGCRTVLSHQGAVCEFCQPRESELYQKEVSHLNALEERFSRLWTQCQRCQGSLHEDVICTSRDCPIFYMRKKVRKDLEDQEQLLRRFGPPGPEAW
Chain of recombinant human Pol δ core+p68 trimer (p125/p50/p68) (human) (P49005 whole entry, stated change not applied, chain 2 of 3, further chain): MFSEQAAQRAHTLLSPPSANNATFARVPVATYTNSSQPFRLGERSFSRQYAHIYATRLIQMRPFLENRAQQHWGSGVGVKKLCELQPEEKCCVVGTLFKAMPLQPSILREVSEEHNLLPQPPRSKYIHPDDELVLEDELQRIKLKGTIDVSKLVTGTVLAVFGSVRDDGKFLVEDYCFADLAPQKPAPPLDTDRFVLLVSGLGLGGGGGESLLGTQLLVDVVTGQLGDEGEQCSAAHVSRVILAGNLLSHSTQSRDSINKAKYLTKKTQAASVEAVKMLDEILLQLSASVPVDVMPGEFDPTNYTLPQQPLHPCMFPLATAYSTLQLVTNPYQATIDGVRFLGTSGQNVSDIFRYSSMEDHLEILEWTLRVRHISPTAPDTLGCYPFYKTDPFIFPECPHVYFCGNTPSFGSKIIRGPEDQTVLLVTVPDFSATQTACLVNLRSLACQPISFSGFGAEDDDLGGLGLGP
Chain of recombinant human Pol δ core+p68 trimer (p125/p50/p68) (human) (Q15054 whole entry, stated change not applied, chain 3 of 3, further chain): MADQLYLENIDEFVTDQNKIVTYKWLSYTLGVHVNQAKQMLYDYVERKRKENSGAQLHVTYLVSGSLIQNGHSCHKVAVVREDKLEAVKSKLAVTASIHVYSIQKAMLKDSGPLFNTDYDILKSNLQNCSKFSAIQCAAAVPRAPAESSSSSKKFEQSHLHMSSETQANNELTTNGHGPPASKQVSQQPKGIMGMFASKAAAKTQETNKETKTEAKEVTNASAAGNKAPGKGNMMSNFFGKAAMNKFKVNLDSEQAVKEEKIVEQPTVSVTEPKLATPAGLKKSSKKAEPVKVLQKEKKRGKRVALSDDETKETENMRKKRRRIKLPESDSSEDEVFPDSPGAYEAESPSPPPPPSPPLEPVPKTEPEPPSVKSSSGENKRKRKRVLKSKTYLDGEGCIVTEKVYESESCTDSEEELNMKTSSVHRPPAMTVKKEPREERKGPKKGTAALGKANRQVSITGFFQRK

Chain of recombinant human PCNA (Proliferating Cell Nuclear Antigen) (P12004 whole entry): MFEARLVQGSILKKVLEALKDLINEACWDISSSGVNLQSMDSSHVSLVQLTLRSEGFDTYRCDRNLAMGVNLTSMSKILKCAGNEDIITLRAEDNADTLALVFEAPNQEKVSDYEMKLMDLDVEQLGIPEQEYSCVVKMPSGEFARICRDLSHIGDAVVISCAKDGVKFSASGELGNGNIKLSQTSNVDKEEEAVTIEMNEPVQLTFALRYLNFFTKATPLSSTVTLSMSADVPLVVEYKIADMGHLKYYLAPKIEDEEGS
Chain of recombinant human Pol δ core dimer (p125/p50) (human) (P28340 whole entry, stated change not applied, chain 1 of 2): as the sequence (P28340 whole entry, stated change not applied, chain 1 of 3) above
Chain of recombinant human Pol δ core dimer (p125/p50) (human) (P49005 whole entry, stated change not applied, chain 2 of 2, further chain): as the sequence (P49005 whole entry, stated change not applied, chain 2 of 3, further chain) above
Chain of recombinant human Pol δ core+p12 trimer (p125/p50/p12) (human) (P28340 whole entry, stated change not applied, chain 1 of 3): as the sequence (P28340 whole entry, stated change not applied, chain 1 of 3) above
Chain of recombinant human Pol δ core+p12 trimer (p125/p50/p12) (human) (P49005 whole entry, stated change not applied, chain 2 of 3, further chain): as the sequence (P49005 whole entry, stated change not applied, chain 2 of 3, further chain) above
Chain of recombinant human Pol δ core+p12 trimer (p125/p50/p12) (human) (Q9HCU8 whole entry, stated change not applied, chain 3 of 3, further chain): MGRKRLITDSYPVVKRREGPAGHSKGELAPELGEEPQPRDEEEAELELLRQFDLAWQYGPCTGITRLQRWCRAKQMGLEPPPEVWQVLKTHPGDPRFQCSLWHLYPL
Chain of recombinant human Pol δ holoenzyme (heterotetramer p125/p50/p68/p12) (human) (P28340 whole entry, stated change not applied, chain 1 of 4): as the sequence (P28340 whole entry, stated change not applied, chain 1 of 3) above
Chain of recombinant human Pol δ holoenzyme (heterotetramer p125/p50/p68/p12) (human) (P49005 whole entry, stated change not applied, chain 2 of 4, further chain): as the sequence (P49005 whole entry, stated change not applied, chain 2 of 3, further chain) above
Chain of recombinant human Pol δ holoenzyme (heterotetramer p125/p50/p68/p12) (human) (Q15054 whole entry, stated change not applied, chain 3 of 4, further chain): as the sequence (Q15054 whole entry, stated change not applied, chain 3 of 3, further chain) above
Chain of recombinant human Pol δ holoenzyme (heterotetramer p125/p50/p68/p12) (human) (Q9HCU8 whole entry, stated change not applied, chain 4 of 4, further chain): as the sequence (Q9HCU8 whole entry, stated change not applied, chain 3 of 3, further chain) above

In the case of “recombinant human PCNA (Proliferating Cell Nuclear Antigen) (from UniProt P12004 1-261) (natural protein)”, the apparent Kd for PCNA: PCNA concentration for half-maximal stimulation of polymerase activity on poly(dA)/oligo(dT), hyperbolic fit [1] is reported as 8.7 nM trimer, the apparent Kd for PCNA: PCNA concentration for half-maximal stimulation of polymerase activity on poly(dA)/oligo(dT), hyperbolic fit [2] is reported as 7.1 nM trimer and the apparent Kd for PCNA: PCNA concentration for half-maximal stimulation of polymerase activity on poly(dA)/oligo(dT), hyperbolic fit [3] is reported as 73 nM trimer. For the same substance, the apparent Kd for PCNA: PCNA concentration for half-maximal stimulation of polymerase activity on poly(dA)/oligo(dT), hyperbolic fit [4] was 9.3 nM trimer.
